Target: HLA-A*02:01 (Homo sapiens, UniProt P04439, D140Y/D185E/D98H/E176V/E277Q/G131W/G231S/I119V/I121R/I166T/I218V/L300P/L318F/N151K/N90K/P208A/P217A/Q86G/Q94H/R138H/R169H/T345S)
Assay: MHC binding assay: UV-ligand exchange with β2m ELISA (peptide exchange yield)
Conditions: MHC class I binding score; binding to HLA-A*02:01 ranged by peptide exchange yield (UV-ligand exchange, β2m ELISA)
Procedure, shortened: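 Binding capacity is expressed as the yield of UV-mediated ligand exchange, reflecting how well each peptide stabilizes peptide-receptive MHC. Stabilized complexes are read out by anti-β2m HRP ELISA (450 nm) after streptavidin capture, with refolded MLA-001 monomer standards for quantitation.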

Substance | Peptide Exchange
236 (GLLESGRHYL; listed as Homo sapiens) [compound 236] | ″+++″ (≥50 = +++)
237 (GLQENLDVVV; listed as Homo sapiens) [compound 237] | ″++++″ (≥75% = ++++)
238 (GLVETELQL; listed as Homo sapiens) [compound 238] | ″+++″ (≥50 = +++)
239 (ILAGEMLSV; listed as Homo sapiens) [compound 239] | ″+++″ (≥50 = +++)
241 (ILGDILLKV; listed as Homo sapiens) [compound 241] | ″+++″ (≥50 = +++)
242 (ILLGIQELL; listed as Homo sapiens) [compound 242] | ″+++″ (≥50 = +++)
243 (ILPTLEKELFL; listed as Homo sapiens) [compound 243] | ″+++″ (≥50 = +++)
244 (ILQALAVHL; listed as Homo sapiens) [compound 244] | ″+++″ (≥50 = +++)
245 (KIMDYSLLLGV; listed as Homo sapiens) [compound 245] | ″++++″ (≥75% = ++++)
246 (KLDETGVAL; listed as Homo sapiens) [compound 246] | ″++″ (≥20% = ++)
247 (KLKDRLPSI; listed as Homo sapiens) [compound 247] | ″++″ (≥20% = ++)
248 (KTVEPPISQV; listed as Homo sapiens) [compound 248] | ″++″ (≥20% = ++)
249 (LLPTGVFQV; listed as Homo sapiens) [compound 249] | ″+++″ (≥50 = +++)
250 (LLVQEPDGLMV; listed as Homo sapiens) [compound 250] | ″+++″ (≥50 = +++)
251 (LLYDNVPGA; listed as Homo sapiens) [compound 251] | ″+++″ (≥50 = +++)
252 (NLLDPGSSYLL; listed as Homo sapiens) [compound 252] | ″+++″ (≥50 = +++)
253 (NLWSVDGEVTV; listed as Homo sapiens) [compound 253] | ″+++″ (≥50 = +++)
254 (QLIPKLIFL; listed as Homo sapiens) [compound 254] | ″+++″ (≥50 = +++)
255 (YLFEEAISM; listed as Homo sapiens) [compound 255] | ″+++″ (≥50 = +++)
256 (QLLPVSNVVSV; listed as Homo sapiens) [compound 256] | ″+++″ (≥50 = +++)
258 (RLDYITAEI; listed as Homo sapiens) [compound 258] | ″+++″ (≥50 = +++)
259 (RLLDEQFAVL; listed as Homo sapiens) [compound 259] | ″+++″ (≥50 = +++)
260 (SLDDVEGMSV; listed as Homo sapiens) [compound 260] | ″+++″ (≥50 = +++)

Substance | Peptide Exchange
261 (SLVEAQGWLV; listed as Homo sapiens) [compound 261] | ″+++″ (≥50 = +++)
262 (SLWNAGTSV; listed as Homo sapiens) [compound 262] | ″+++″ (≥50 = +++)
263 (SQWEDIHVV; listed as Homo sapiens) [compound 263] | ″+++″ (≥50 = +++)
264 (TILDYINVV; listed as Homo sapiens) [compound 264] | ″+++″ (≥50 = +++)
265 (TLLADDLEIKL; listed as Homo sapiens) [compound 265] | ″+++″ (≥50 = +++)
266 (TLLDQLDTQL; listed as Homo sapiens) [compound 266] | ″++″ (≥20% = ++)
267 (TLLDWQDSL; listed as Homo sapiens) [compound 267] | ″+++″ (≥50 = +++)
268 (TLLQVFHLL; listed as Homo sapiens) [compound 268] | ″+++″ (≥50 = +++)
269 (TLTDEQFLV; listed as Homo sapiens) [compound 269] | ″++″ (≥20% = ++)
270 (TVLPVPPLSV; listed as Homo sapiens) [compound 270] | ″+++″ (≥50 = +++)
271 (VIRNIVEAA; listed as Homo sapiens) [compound 271] | ″++″ (≥20% = ++)
272 (VLDELPPLI; listed as Homo sapiens) [compound 272] | ″+++″ (≥50 = +++)
273 (VLGEYSYLL; listed as Homo sapiens) [compound 273] | ″+++″ (≥50 = +++)
274 (VLLEYHIAYL; listed as Homo sapiens) [compound 274] | ″+++″ (≥50 = +++)
275 (VLLFIEHSV; listed as Homo sapiens) [compound 275] | ″+++″ (≥50 = +++)
276 (VLNDGAPNV; listed as Homo sapiens) [compound 276] | ″+++″ (≥50 = +++)
277 (VMILKLPFL; listed as Homo sapiens) [compound 277] | ″++″ (≥20% = ++)
278 (YLDDLLPKL; listed as Homo sapiens) [compound 278] | ″+++″ (≥50 = +++)
279 (YMAPEVVEA; listed as Homo sapiens) [compound 279] | ″+++″ (≥50 = +++)
280 (YTLDSLYWSV; listed as Homo sapiens) [compound 280] | ″+++″ (≥50 = +++)
283 (ILQPMDIHV; listed as Homo sapiens) [compound 283] | ″+++″ (≥50 = +++)
284 (LLSAAEPVPA; listed as Homo sapiens) [compound 284] | ″++″ (≥20% = ++)
285 (GVATAGCVNEV; listed as Homo sapiens) [compound 285] | ″++++″ (≥75% = ++++)

Continued, values first:

Peptide Exchange | Substance
″+++″ (≥50 = +++) | 286 (FLLEDLSQKL; listed as Homo sapiens) [compound 286]
″++++″ (≥75% = ++++) | 287 (FLWEEKFNSL; listed as Homo sapiens) [compound 287]
″+++″ (≥50 = +++) | 288 (GLAESTGLLAV; listed as Homo sapiens) [compound 288]
″+++″ (≥50 = +++) | 289 (ILEEQPMDMLL; listed as Homo sapiens) [compound 289]
″+++″ (≥50 = +++) | 291 (ILLNEDDLVTI; listed as Homo sapiens) [compound 291]
″+++″ (≥50 = +++) | 292 (AAALIIHHV; listed as Homo sapiens) [compound 292]
″+++″ (≥50 = +++) | 293 (ALDIMIPMV; listed as Homo sapiens) [compound 293]
″++++″ (≥75% = ++++) | 294 (ALLDQLHTLL; listed as Homo sapiens) [compound 294]
″+++″ (≥50 = +++) | 295 (ALLQKLQQL; listed as Homo sapiens) [compound 295]
″++″ (≥20% = ++) | 296 (FIAPTGHSL; listed as Homo sapiens) [compound 296]
″+++″ (≥50 = +++) | 297 (FLVEPQEDTRL; listed as Homo sapiens) [compound 297]
″+++″ (≥50 = +++) | 298 (IILPVEVEV; listed as Homo sapiens) [compound 298]
″+++″ (≥50 = +++) | 299 (ILEENIPVL; listed as Homo sapiens) [compound 299]
″+++″ (≥50 = +++) | 300 (ILLNPAYDVYL; listed as Homo sapiens) [compound 300]
″+++″ (≥50 = +++) | 301 (AASPIITLV; listed as Homo sapiens) [compound 301]
″+++″ (≥50 = +++) | 302 (ILQDLTFVHL; listed as Homo sapiens) [compound 302]

Peptide Exchange | Substance
″+++″ (≥50 = +++) | 303 (ILSQPTPSL; listed as Homo sapiens) [compound 303]
″+″ (≥10% = +) | 304 (LAIVPVNTL; listed as Homo sapiens) [compound 304]
″+++″ (≥50 = +++) | 305 (LLFPQIEGIKI; listed as Homo sapiens) [compound 305]
″++″ (≥20% = ++) | 306 (VVAEELENV; listed as Homo sapiens) [compound 306]
″++++″ (≥75% = ++++) | 308 (SLYDVSRMYV; listed as Homo sapiens) [compound 308]
″+++″ (≥50 = +++) | 309 (ILYGTQFVL; listed as Homo sapiens) [compound 309]
″+++″ (≥50 = +++) | 310 (LLSTLHLLV; listed as Homo sapiens) [compound 310]
″+++″ (≥50 = +++) | 311 (LLVDVEPKV; listed as Homo sapiens) [compound 311]
″+++″ (≥50 = +++) | 312 (LLYNSTDPTL; listed as Homo sapiens) [compound 312]
″+++″ (≥50 = +++) | 313 (LMADLEGLHL; listed as Homo sapiens) [compound 313]
″+++″ (≥50 = +++) | 314 (LMKDCEAEV; listed as Homo sapiens) [compound 314]
″+++″ (≥50 = +++) | 315 (LVYEAPETV; listed as Homo sapiens) [compound 315]
″+++″ (≥50 = +++) | 316 (MLLEHGITL; listed as Homo sapiens) [compound 316]
″+++″ (≥50 = +++) | 317 (NLLAHIWAL; listed as Homo sapiens) [compound 317]
″+++″ (≥50 = +++) | 318 (NLQVTQPTV; listed as Homo sapiens) [compound 318]
″+++″ (≥50 = +++) | 319 (QVIPQLQTV; listed as Homo sapiens) [compound 319]
